Source: the supplement of paper PMC7877785
± gives the uncertainty stated by the source.

Experiment: self-splicing fitness, log relative to wild type (ln ratio); higher = more splicing; Tetrahymena group I intron in knt gene, E. coli kanamycin selection, DiMSum; sequences stand for … in CUCUCU…GGAGGGAAAAGUUAUCAGGCAUGCACCUGGUAGCUAGUCUUUAAACCAAUAGAUUGCAUCGGUUUAAAAGGCAAGACCGUCAAAUUGCGGGAAAGGGGUCAACAGCCGUUCAGUACCAAGUCUCAGGGGAAACUUUGAGAUGGCCUUGCAAAGGGUAUGGUAAUAAGCUGACGGACAUGGUCCUAACCACGCAGCCAAGUCCUAAGUCAACAGAUCUUCUGUUGAUAUGGAUGCAGUUCACAGACUAAAUGUCGGUCGGGGAAGAUGUAUUCUUCUCAUAAGAUAUAGUCGGACCUCUCCUUAAUGGGAGCUAGCGGAUGAAGUGAUGCAACACUGGAGCCGCUGGGAACUAAUUUGUAUGCGAAAGUAUAUUGAUUAGUUUUGGAGUACUCGUGGUCG
Procedure, shortened: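 The eight P1ex-region nucleotides of an intron in the knt kanamycin-resistance gene on pET-22b(+) were all randomised and the library put into E. coli BL21(DE3). Six replicate transformations were grown overnight at 37°C or 30°C on LB agar with or without 25 μg/mL kanamycin, together with 100 μg/mL carbenicillin, 50 μM IPTG and 0.2% rhamnose. Colonies were pooled and amplicon-sequenced on an Illumina HiSeq 2500. Fitness from DiMSum is the error-weighted combination of wild-type-normalised replicate fold changes, kanamycin over none.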

AGAAAGCAAUAUUACGAGAA
self-splicing fitness (ln) (30 °C): -2.63 ± 0.27
self-splicing fitness (ln) (37 °C): -1.24 ± 0.25

GAACAGCAAUAUUACGUUCA
self-splicing fitness (ln) (30 °C): -2.31 ± 0.1
self-splicing fitness (ln) (37 °C): -1.49 ± 0.087

UAAGAGCAAUAUUACGGGUU
self-splicing fitness (ln) (30 °C): -3.51 ± 0.29
self-splicing fitness (ln) (37 °C): -2.06 ± 0.31

AUGUAGCAAUAUUACGAAGC
self-splicing fitness (ln) (30 °C): -3.22 ± 0.37
self-splicing fitness (ln) (37 °C): 0.239 ± 0.23

ACUUAGCAAUAUUACGCGAU
self-splicing fitness (ln) (30 °C): -3.66 ± 0.36
self-splicing fitness (ln) (37 °C): -1.13 ± 0.17

UUCCAGCAAUAUUACGAAGG
self-splicing fitness (ln) (30 °C): -3.8 ± 0.22
self-splicing fitness (ln) (37 °C): -3.2 ± 0.37

UGAGAGCAAUAUUACGCGGA
self-splicing fitness (ln) (30 °C): -3.34 ± 0.47
self-splicing fitness (ln) (37 °C): -1.49 ± 0.46

CUUCAGCAAUAUUACGCGUG
self-splicing fitness (ln) (30 °C): -0.775 ± 0.08
self-splicing fitness (ln) (37 °C): -0.978 ± 0.1

UUGGAGCAAUAUUACGUCAG
self-splicing fitness (ln) (30 °C): -2.63 ± 0.26
self-splicing fitness (ln) (37 °C): -0.954 ± 0.2

GGGAAGCAAUAUUACGGCUU
self-splicing fitness (ln) (30 °C): -2.11 ± 0.2
self-splicing fitness (ln) (37 °C): -1.41 ± 0.23

UGCUAGCAAUAUUACGCGUU
self-splicing fitness (ln) (30 °C): -1.7 ± 0.14
self-splicing fitness (ln) (37 °C): -0.563 ± 0.14

AAGCAGCAAUAUUACGUUCG
self-splicing fitness (ln) (30 °C): -1.98 ± 0.089
self-splicing fitness (ln) (37 °C): -0.509 ± 0.1

GCUGAGCAAUAUUACGAUCA
self-splicing fitness (ln) (37 °C): -1.55 ± 0.35

ACAAAGCAAUAUUACGCCGG
self-splicing fitness (ln) (30 °C): -0.52 ± 0.065
self-splicing fitness (ln) (37 °C): -0.282 ± 0.083

GCGUAGCAAUAUUACGAAGC
self-splicing fitness (ln) (30 °C): -3.48 ± 0.3
self-splicing fitness (ln) (37 °C): -1.67 ± 0.47

CGAGAGCAAUAUUACGGUCA
self-splicing fitness (ln) (30 °C): -3.17 ± 0.27
self-splicing fitness (ln) (37 °C): -2.29 ± 0.3

CUUAAGCAAUAUUACGGAGG
self-splicing fitness (ln) (30 °C): -2.43 ± 0.21
self-splicing fitness (ln) (37 °C): -3.19 ± 0.37

ACUAAGCAAUAUUACGACUU
self-splicing fitness (ln) (30 °C): -0.429 ± 0.093
self-splicing fitness (ln) (37 °C): 0.924 ± 0.12

ACCAAGCAAUAUUACGGUUC
self-splicing fitness (ln) (30 °C): -3.36 ± 0.15
self-splicing fitness (ln) (37 °C): -3.46 ± 0.25

CUUAAGCAAUAUUACGUACG
self-splicing fitness (ln) (30 °C): -0.58 ± 0.076
self-splicing fitness (ln) (37 °C): -0.451 ± 0.079

CGUUAGCAAUAUUACGAGUU
self-splicing fitness (ln) (30 °C): -2.98 ± 0.36
self-splicing fitness (ln) (37 °C): -2.27 ± 0.45

CUUAAGCAAUAUUACGUUGG
self-splicing fitness (ln) (30 °C): -2.67 ± 0.15
self-splicing fitness (ln) (37 °C): -2.4 ± 0.14

UACCAGCAAUAUUACGAGCC
self-splicing fitness (ln) (30 °C): -4.51 ± 0.33
self-splicing fitness (ln) (37 °C): -2.07 ± 0.32

CAAUAGCAAUAUUACGCUCG
self-splicing fitness (ln) (30 °C): -0.561 ± 0.074
self-splicing fitness (ln) (37 °C): -0.204 ± 0.092

CAAAAGCAAUAUUACGCACA
self-splicing fitness (ln) (30 °C): -1.75 ± 0.1
self-splicing fitness (ln) (37 °C): -0.746 ± 0.11

GUGCAGCAAUAUUACGUACG
self-splicing fitness (ln) (30 °C): -2.19 ± 0.086
self-splicing fitness (ln) (37 °C): -1.18 ± 0.08

GGAAAGCAAUAUUACGGCCA
self-splicing fitness (ln) (30 °C): -0.368 ± 0.081
self-splicing fitness (ln) (37 °C): -0.0522 ± 0.1

UCUCAGCAAUAUUACGUACU
self-splicing fitness (ln) (30 °C): -3.39 ± 0.28
self-splicing fitness (ln) (37 °C): -1.2 ± 0.19

UACAAGCAAUAUUACGAAGA
self-splicing fitness (ln) (30 °C): -2.08 ± 0.27
self-splicing fitness (ln) (37 °C): -2.11 ± 0.21

GUAAAGCAAUAUUACGGGAU
self-splicing fitness (ln) (30 °C): -1.62 ± 0.082
self-splicing fitness (ln) (37 °C): -0.341 ± 0.11

GUGCAGCAAUAUUACGUCGA
self-splicing fitness (ln) (30 °C): -1.22 ± 0.096
self-splicing fitness (ln) (37 °C): -0.927 ± 0.1

GGCGAGCAAUAUUACGAUCU
self-splicing fitness (ln) (30 °C): -0.834 ± 0.12
self-splicing fitness (ln) (37 °C): 0.229 ± 0.14

GCGCAGCAAUAUUACGGUAG
self-splicing fitness (ln) (30 °C): -3.4 ± 0.15
self-splicing fitness (ln) (37 °C): -1.88 ± 0.14

CACCAGCAAUAUUACGCGAC
self-splicing fitness (ln) (30 °C): -4.31 ± 0.2
self-splicing fitness (ln) (37 °C): -2.89 ± 0.23

UAGUAGCAAUAUUACGAAAC
self-splicing fitness (ln) (37 °C): -2.13 ± 0.45

GCGCAGCAAUAUUACGGUCU
self-splicing fitness (ln) (30 °C): -0.494 ± 0.075
self-splicing fitness (ln) (37 °C): 0.0551 ± 0.095

UUAGAGCAAUAUUACGCGCU
self-splicing fitness (ln) (30 °C): -1.84 ± 0.41
self-splicing fitness (ln) (37 °C): -1.11 ± 0.47

ACCUAGCAAUAUUACGGUGG
self-splicing fitness (ln) (30 °C): -4 ± 0.16
self-splicing fitness (ln) (37 °C): -3.02 ± 0.15

UAGAAGCAAUAUUACGGCAG
self-splicing fitness (ln) (30 °C): -0.136 ± 0.12
self-splicing fitness (ln) (37 °C): 0.24 ± 0.16

UCGGAGCAAUAUUACGUCGG
self-splicing fitness (ln) (30 °C): -1.7 ± 0.24
self-splicing fitness (ln) (37 °C): -2.04 ± 0.28

CCUAAGCAAUAUUACGGAGG
self-splicing fitness (ln) (30 °C): -4.42 ± 0.29
self-splicing fitness (ln) (37 °C): -2.71 ± 0.31

AAAAAGCAAUAUUACGAAGA
self-splicing fitness (ln) (30 °C): -1.96 ± 0.14
self-splicing fitness (ln) (37 °C): -1.56 ± 0.15

CGGAAGCAAUAUUACGAAUA
self-splicing fitness (ln) (30 °C): -2.53 ± 0.39

GCAAAGCAAUAUUACGGGUG
self-splicing fitness (ln) (30 °C): -1.23 ± 0.047
self-splicing fitness (ln) (37 °C): -1.23 ± 0.057

GUAAAGCAAUAUUACGAGGU
self-splicing fitness (ln) (30 °C): -3.07 ± 0.13
self-splicing fitness (ln) (37 °C): -1.83 ± 0.24

CUAUAGCAAUAUUACGAACA
self-splicing fitness (ln) (30 °C): -2.76 ± 0.19
self-splicing fitness (ln) (37 °C): -2.49 ± 0.2

CGGUAGCAAUAUUACGUAAC
self-splicing fitness (ln) (30 °C): -3.22 ± 0.4
self-splicing fitness (ln) (37 °C): -2.06 ± 0.41

UCCUAGCAAUAUUACGACAA
self-splicing fitness (ln) (37 °C): -2.04 ± 0.29

CAUUAGCAAUAUUACGGCCA
self-splicing fitness (ln) (30 °C): -2.3 ± 0.28

GCGGAGCAAUAUUACGGAUA
self-splicing fitness (ln) (30 °C): -2.53 ± 0.33
self-splicing fitness (ln) (37 °C): -1.26 ± 0.25

AAUAAGCAAUAUUACGAUGU
self-splicing fitness (ln) (30 °C): -0.62 ± 0.076
self-splicing fitness (ln) (37 °C): -0.682 ± 0.11

AGAAAGCAAUAUUACGGACA
self-splicing fitness (ln) (30 °C): -0.632 ± 0.2
self-splicing fitness (ln) (37 °C): -0.869 ± 0.29

AGCGAGCAAUAUUACGAUGC
self-splicing fitness (ln) (30 °C): -3.11 ± 0.45

GUCAAGCAAUAUUACGGCGU
self-splicing fitness (ln) (30 °C): -1.04 ± 0.083
self-splicing fitness (ln) (37 °C): -0.0377 ± 0.1

UACAAGCAAUAUUACGAUGU
self-splicing fitness (ln) (30 °C): -3.72 ± 0.17
self-splicing fitness (ln) (37 °C): -1.96 ± 0.14

UACAAGCAAUAUUACGAGUA
self-splicing fitness (ln) (30 °C): -2.13 ± 0.08
self-splicing fitness (ln) (37 °C): -0.707 ± 0.078

CUGUAGCAAUAUUACGUAAA
self-splicing fitness (ln) (30 °C): -3.52 ± 0.3
self-splicing fitness (ln) (37 °C): -1.6 ± 0.23

CAUCAGCAAUAUUACGCUUG
self-splicing fitness (ln) (30 °C): -2.08 ± 0.084
self-splicing fitness (ln) (37 °C): -1.03 ± 0.098

GGUGAGCAAUAUUACGGGUA
self-splicing fitness (ln) (30 °C): -2.58 ± 0.31
self-splicing fitness (ln) (37 °C): -1.64 ± 0.38

AGGAAGCAAUAUUACGUACG
self-splicing fitness (ln) (30 °C): -1.15 ± 0.11
self-splicing fitness (ln) (37 °C): -0.064 ± 0.1

GUUUAGCAAUAUUACGUUGA
self-splicing fitness (ln) (30 °C): -3.52 ± 0.43
self-splicing fitness (ln) (37 °C): -2 ± 0.26

AUGUAGCAAUAUUACGCAAU
self-splicing fitness (ln) (30 °C): -1.49 ± 0.13
self-splicing fitness (ln) (37 °C): -1.01 ± 0.23

UUAUAGCAAUAUUACGGAGC
self-splicing fitness (ln) (37 °C): -2.95 ± 0.43

AACGAGCAAUAUUACGUGAU
self-splicing fitness (ln) (30 °C): -3.03 ± 0.18
self-splicing fitness (ln) (37 °C): -0.913 ± 0.13

UUGUAGCAAUAUUACGGCAG
self-splicing fitness (ln) (30 °C): -0.0514 ± 0.14
self-splicing fitness (ln) (37 °C): 0.374 ± 0.18

GCCGAGCAAUAUUACGCUGU
self-splicing fitness (ln) (30 °C): -2.17 ± 0.14
self-splicing fitness (ln) (37 °C): -1.57 ± 0.14

AAAAAGCAAUAUUACGUUGC
self-splicing fitness (ln) (30 °C): -3.56 ± 0.13
self-splicing fitness (ln) (37 °C): -2.44 ± 0.14

AGAAAGCAAUAUUACGGGCC
self-splicing fitness (ln) (30 °C): -1.66 ± 0.14
self-splicing fitness (ln) (37 °C): -1.04 ± 0.13

GUCCAGCAAUAUUACGACGU
self-splicing fitness (ln) (30 °C): 0.172 ± 0.091
self-splicing fitness (ln) (37 °C): 0.365 ± 0.085

AACCAGCAAUAUUACGGGCC
self-splicing fitness (ln) (30 °C): -1.4 ± 0.082
self-splicing fitness (ln) (37 °C): -0.824 ± 0.11

UGUGAGCAAUAUUACGGUAG
self-splicing fitness (ln) (30 °C): -2.45 ± 0.18
self-splicing fitness (ln) (37 °C): -1.79 ± 0.21

CUUCAGCAAUAUUACGGGGC
self-splicing fitness (ln) (30 °C): -2.93 ± 0.22
self-splicing fitness (ln) (37 °C): -2.21 ± 0.34

GUAAAGCAAUAUUACGGUCC
self-splicing fitness (ln) (30 °C): -1.23 ± 0.21
self-splicing fitness (ln) (37 °C): -0.634 ± 0.25

ACGUAGCAAUAUUACGUCAG
self-splicing fitness (ln) (30 °C): -3.39 ± 0.18
self-splicing fitness (ln) (37 °C): -2.34 ± 0.2

AUACAGCAAUAUUACGAUCG
self-splicing fitness (ln) (30 °C): -0.733 ± 0.071
self-splicing fitness (ln) (37 °C): -0.839 ± 0.097

CGACAGCAAUAUUACGUAAC
self-splicing fitness (ln) (30 °C): -4.37 ± 0.23
self-splicing fitness (ln) (37 °C): -2.03 ± 0.31

AGGAAGCAAUAUUACGGAGU
self-splicing fitness (ln) (30 °C): -2.89 ± 0.17
self-splicing fitness (ln) (37 °C): -1.7 ± 0.22
